From patent EP4755913A1 (Abiotech Pharmaceutical Co., Ltd, dated 2026)

What was measured:
[1] = target: Human C1q (Abcam, Cat No. AB282858) (human, UniProt P02745 23-245; P02746 28-253; P02747 29-245, limits assumed); assay: BLI (Octet R8), antibody on FAB2G sensor, C1q in solution
[2] = target: T1, Human FcγRIIA (CD32a) (ACRO, Cat No. CDA-H5221) (human, UniProt P12318 36-218, limits assumed); assay: BLI (Octet R8), antibody on ProA sensor, CD32a in solution
T1 construct: Used in solution against antibody on ProA sensors
T1 sequence (looked up): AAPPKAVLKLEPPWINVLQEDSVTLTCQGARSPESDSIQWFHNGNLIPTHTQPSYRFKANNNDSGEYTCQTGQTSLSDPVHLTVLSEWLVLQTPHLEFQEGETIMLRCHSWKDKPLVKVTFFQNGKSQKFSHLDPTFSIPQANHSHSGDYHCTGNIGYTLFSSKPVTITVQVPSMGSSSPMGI

[3] = target: T2, Recombinant human c-Met-HIS (Acrobiosystems, C-MET-H5227) (human, UniProt P08581 25-932); assay: ELISA, C-MET-HIS coated, anti-human IgG Fc detection
T2 construct: Bought reagent; also called HGFR-his; HGFR-HIS; not shown: His tag

[4] = target: T3, Human FcRn (ACRO, Cat No. FCM-H8286) (human, UniProt P55899 24-297; P61769 21-119, biotinylated (Bio-FcRn, site not stated)); assay: BLI (Octet R8), biotinylated FcRn on SA sensor, antibody in solution
T3 construct: immobilised on SA (streptavidin) sensors; also called Bio-FcRn

[5] = target: T4, Recombinant human EGFR-HIS (Acrobiosystems, EGR-H5222) (human, UniProt P00533 25-645); assay: ELISA, EGFR-HIS coated, anti-human IgG Fc detection
T4 construct: Bought reagent; not shown: His tag

[6] = target: T5, Human EGFR membrane protein on cells (human, UniProt P00533 25-645); assay: flow cytometry on CHO-K1 cells overexpressing human EGFR
T5 construct: the same id is used for the endogenous EGFR of A549 and MKN45 cells in the functional rows; also called CHOK1-EGFR; CHO-K1-EGFR

[7] = target: T6, Human c-Met membrane protein on cells (human, UniProt P08581 25-932); assay: flow cytometry on CHO-K1 cells overexpressing human c-Met
T6 construct: the same id is used for the endogenous c-Met of A549 and MKN45 cells in the functional rows; also called CHOK1-HGFR; CHO-K1-c-Met

[8] = target: T7, HGFR-hfc (Acrobiosystems, Cat No. MET-H5256) (human, UniProt P08581 25-932); assay: blocking ELISA, HGFR-hfc coated, HGF-HIS as competitor ligand, anti-His detection
T7 construct: Bought reagent; also called human HGFR protein; receptor c-Met; not shown: human Fc (hfc)

[9] = target: T4, Recombinant human EGFR-HIS …; assay: BLI (Octet R8), antibody captured on AHC2 sensor, EGFR-His in solution
[10] = target: T2, Recombinant human c-Met-HIS …; assay: BLI (Octet R8), antibody captured on AHC2 sensor, c-Met-HIS in solution
[11] = target: T8, Human FcγRIIIA (CD16a-V176) (ACRO, Cat No. CD8-H52H4) (human, UniProt P08637 17-208); assay: BLI (Octet R8), receptor on HIS1K sensor, antibody in solution
T8 construct: Immobilised on HIS1K (anti-His) sensors, so His-tagged; tag not described

[12] = target: T9, Human FcγRIIIA (CD16a-F176) (ACRO, Cat No. CDA-H5220) (human, UniProt P08637 17-208); assay: as above
T9 construct: Immobilised on HIS1K (anti-His) sensors, so His-tagged; tag not described

[13] = target: T10, Human FcγRIIB/C (CD32b/c) (ACRO, Cat No. CDB-H5228) (human, UniProt P31994 46-217, limits assumed); assay: as above
T10 construct: Immobilised on HIS1K (anti-His) sensors, so His-tagged; tag not described
T10 sequence (looked up): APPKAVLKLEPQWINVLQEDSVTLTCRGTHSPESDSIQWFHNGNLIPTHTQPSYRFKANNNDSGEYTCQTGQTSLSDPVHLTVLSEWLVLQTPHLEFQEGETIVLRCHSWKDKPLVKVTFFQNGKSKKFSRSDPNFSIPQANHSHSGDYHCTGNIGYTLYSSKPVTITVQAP

[14] = target: T11, Human FcγRI (CD64) (ACRO, Cat No. FCA-H52H1) (human, UniProt P12314 16-288, limits assumed); assay: as above
T11 construct: His-tagged (CD64-His), immobilised on HIS1K sensors; tag not described; also called CD64-His

[15] = target: T12, Human FcγRIIIB (CD16b) (ACRO, Cat No. CDB-H5227) (human, UniProt O75015 17-200); assay: as above
T12 construct: Immobilised on HIS1K (anti-His) sensors, so His-tagged; tag not described

[16] = target: T5, Human EGFR membrane protein on cells; assay: cell-based or functional assay
[17] = target: T6, Human c-Met membrane protein on cells; assay: cell-based or functional assay
[18] = target: T2, Recombinant human c-Met-HIS …; assay: BLI (Octet R8), affinity for c-Met-his compared with affinity for EGFR-HIS

- Kd [1]: 11.2 nM
- Kd [2]: 1520 nM
- EC50 [3]: 0.00822 µg/mL
- Kd [4]: 228 nM
- EC50 [5]: 1.3 µg/mL
- EC50 [6]: 1.73 µg/mL
- EC50 [7]: 0.266 µg/mL
- IC50 [8]: 0.456 µg/mL
- Kd [9]: 21.9 nM
- koff [9]: 0.0033 s⁻¹
- kon [9]: 151000 M⁻¹ s⁻¹
- Kd [10]: 0.766 nM
- koff [10]: 0.000213 s⁻¹
- kon [10]: 278000 M⁻¹ s⁻¹
- Kd [11]: 26.5 nM
- Kd [12]: 330 nM
- Kd [13]: 1650 nM
- Kd [14]: 8.97 nM
- Kd [15]: 14400 nM
- fold difference between the affinities of the two arms (c-Met-his against EGFR-HIS) [18]: > 20 fold
B1: Anti-c-Met/EGFR bispecific antibody BT461-DB (bispecific antibody, human IgG1, kappa)
light 1: DIQMTQSPSSLSASVGDRVTITCRSSQNIVHSNGNTYLDWYQQTPGKAPKLLIYKVSNRFSGVPSRFSGSGSGTDFTFTISSLQPEDIATYYCFQYSHVPWTFGQGTKLQITRTVAAPSVFIFPPSDEQLKSGTASVVCLLNNFYPREAKVQWKVDNALQSGNSQESVTEQDSKDSTYSLSSTLTLSKADYEKHKVYACEVTHQGLSSPVTKSFNRGEC
heavy 1: not shown
light 2: DIQMTQSPSSLSASVGDRVTITCSVSSSVSSIYLHWYQQKPGKAPKLLIYSTSNLASGVPSRFSGSGSGTDFTLTISSLQPEDFATYYCQVYSGYPLTFGGGTKVEIKRTVAAPSVFIFPPSDEQLKSGTASVVCLLNNFYPREAKVQWKVDNALQSGNSQESVTEQDSKDSTYSLSSTLTLSKADYEKHKVYACEVTHQGLSSPVTKSFNRGEC
heavy 2: not shown
notes: DuoBody format, assembled in vitro by Fab arm exchange from BT461-DB-EGFR and BT461-DB-c-Met; parents expressed in FUT8 knock-out CHO-K1 cells (no fucose); also called BT461 with Duobody structure
- EC50 of Antibody-Mediated ADCC Killing Curves (ADCC Reporter Bioassay, CHOK1-EGFR target cells) [16]: 0.185 µg/mL
- EC50 of Antibody-Mediated ADCC Killing Curves (ADCC Reporter Bioassay, CHOK1-c-Met target cells) [17]: 0.162 µg/mL
